Experimental data: the DeepSol protein solubility set

test: soluble on expression in E. coli; label from the status in PepcDB or PDB records

| Sequence | soluble on expression in E. coli |
| --- | --- |
| MEGLLMYDVHSKHADDFISHEEILETLAYADENKTNEALIDSILEKARLRKGLSHREASVLLACPIEEKNQEIYRLAEQIKKDFYGNRIVMFAPLYLSNYCVNGCTYCPYHLKNKHIARKQLTQEEIRKEVIALQDMGHKRLALEAGEDPVRNTIDYYLESIKTIYSIKHKNGAIRRVNINIAATTVDNYRLLKEAGIGTYILFQETYHKESYLALHPTGPKHDYNYHTEAMDRAMEGGIDDVGIGVLFGLDKYRYEFAGLLMHAEHLEAAFGVGPHTISVPRLRHADDINADEFDNGIDDDTFAKIVACIRIAVPYTGMIISTRESQKCRERVLHLGVSQISGGSRTSVGGYCEPEPDDAKSEQFDVSDTRTLDEVVRWLMEMDYIPSFCTACYREGRTGDRFMSLCKSGQIQNCCHPNALMTLKEYLMDYASPETKAIGDRLIDKEVLNVPNEKARAVVLENLRLIEQNNRRDFRF | not soluble |
| MEGLSMDQVVIFKQIFDKVRNDLNYQWFYSELKRHNVSHYIYYLATENVHIVLKNDNTVLLKGLKNIVSVKFSKDRHLIETTSNKLKSREITFQEYRRNLAKAGVFRWVTNIHEQKRYYYTFDNSLLFTESIQKTTQILPRLEHHHHHH | soluble |
| MEGVVRLEVPTPEEGFVNITRKVEAALSGHTGLVYLFVPHTTCGLTVQEGADPTVAQDLLGRLAELAPRHRPQDRHLEGNSHAHLKSLLTGVHLLLLAEKGRLRLGRWQQVFLAEFDGPRVREVWVRLL | soluble |
| MEHREALIALRTFLSTQILGQEKLIERLLIALLADGHMLVEGAPGLAKTKAIKELAEGIEAQFHRIQFTPDLLPADITGTEIYRPETGSFVFQQGPIFHNLVLADEINRAPAKVQSALLEAMAERQVSVGRSTYDLSPLFLVMATQNPIEQEGTYPLPEAQLDRFLMHVKIGFPDAAVERKILQQARGEALNGETKPERRVSQQAIFAARKEILGLYMADAVEEYLVQLVMATRTPAKFDPELAEWIAYGASPRGSISLDRCARAHAWLAGRDFVSPEDIQAVLFDVLRHRIILSFEAEAAGIDQDRVIQRILDVVAVALEHHHHHH | soluble |
| MEHTIAVIPGSFDPITYGHLDIIERSTDRFDEIHVCVLKNSKKEGTFSLEERMDLIEQSVKHLPNVKVHQFSGLLVDYCEQVGAKTIIRGLRAVSDFEYELRLTSMNKKLNNEIETLYMMSSTNYSFISSSIVKEVAAYRADISEFVPPYVEKALKKKFKLEHHHHHH | soluble |
| MEIDDCIRDNIPWANLSPDIKVILGNSSKEYEKRVLEYSIQNQLRYKGNLIRHMKKSEEAYYEQLLRFSESHLMLYPYHLSDITVTEMRLSPFSYYANILTEMLNTEKSYDSLPNFTAADAVRLLGIGRNQYIELMNQTRSNRKFLRRSKSARELLPQKPTKMIVESWWRTNVGSILESDVKTLNEEEKQVIDRLLDTNVAIPAGLLKYSVVTSLYDRGLIYFDVPVYDNDYIYVAPLDGFVMNRVLGDYFETLLYKIFVAIDDQTTVLEMSQILHIDLQLVKNAISVFCRLGFARKRVTGGENLTIHTSWTSNSTVTTPMSPISPMSSLITSTSDELNELTKTLLRGDDDETDDALSPVSEDSALRASSPNPSLNNSVESFQSLSTSQTASDLSGSSGTVNRAAFIFDSTLTAFLMMGNLSASLKGHAVALFEVGKLADEQMKEFLEQLESVNQFAEGDAQRYSMHATALLDSLKSLRQEREADLIRGESLYTLDEKSRQRVLQKSYGILVAMAPLSIEACAIPVQSVPLIGPPNAETCSPWFRLSIYSACSSGPPSVFLPHGTRLTTLPRVLQSFQHHRFLVSSTKHEPHIMTAQNALFALNDMLVYSSIFVQSVPLDSEDCDKMIHVPFPFEDLECETAFCNHPAIRKLREQLSLDFTAGYVILLKKSGKSITTSGSDISGRTKAESNIMQDVSLPKDGGLLKKLLPGTSFDDFLLLDCVFGVPLFNSVLNETICKRILGRGILEQQNRSNIQNSNKQVVGMINELIDTANNGLIKGSQLFVEGTDQQRNAQIVPPVRAIFFDSSQLISYGTI | not soluble |
| MEIERINEHTVKFYISYVDIEERGFDREEIWYNRERSEELFWEMMDEVHGESDFSLDGPLWIQVQALEKGLEVVVTKAQLSKDGSKLELPLPEEKWREFSLSADEKVESLFGHHFHFGQNGDAEEREEQDVLRFILSFKDIEDVISLAHRADFSRLSNRLFQFEGRYYLFVEFDERYTEQEVDNMLSLLLEYGSDSQLTIYRLEEYGTEIMGDNALETIKTYFPAS | not soluble |
| MEIIKISPRGYCYGVIDAMVIAKNASLDPNLPRPIHILGMIVHNKHVTDAFESIGIYTVDGANREEILDKITTGTVIFTAHGVSPSVKAKAVAKGLTTIDATCPDVLHTYNLILEKQAAGYEIIYIGKKGHPEPEGAYGTAPDVVHLVETKADIDALSLLSDKIFVTNQTTMSKWDVADLMHYIKGKFPKAIQHQEICMATQVRQEAVALQAKDADLTIVVGDPRSNNTARLAQVSIEKAGTKAYRIADITELDIEWIKDAKKVAVTAGASTPTQLVREVLLFLEQFDAADKTTWKREHNQDFERILPKTKNKYMAEKRSQRLAHLKNGGSLEHHHHHH | not soluble |
| MEIKQTIAKNLNRVKNELGLKNQDLAEVMGVTRQTIAKYLKGEQIPDSAKLFLLSRRLNIPMKDLIVSSDDQREPMSSFMFRADNPKENFRLIDQNQVNRIMDDYYELLASFGEASVAYLPPTYKLKLVDHELTEEHKTIIRQAAEQTRKMFGLDHVIPSDIYAVLEHHGIHVIALKTIDKKIDGLSAYSEEKGAFIFLNDHDEIPEERKRFSVIHELGHLIFHREEYRSDLSSLTYSSARREINEKVATLFASYFLIPREQLREYAYYFKRYVTIETIMELKRQFFVSAEAFMRALLDEQYISGRTYGFLRKTLREQGYKEQEPAPIDYIPKNRKLTYFVKQAYFEGSITINKVCEILGCDLRTAREMIKGWYKEHGCSENTGAL | not soluble |
| MEILEEKPKEGKVKIKVETLDDLWHLYHIITPGDVVYAKTLRKQSQRSDSLRPEKVEVIPVFLGVKVEKINFHKFANQLRVTGPIIYASREDVPLGKYHTIAVEPGTIITLQKERWKPYYIERLKEAVEASKRAKVMIVTIEDGEAEMAIVREYGLDFIATIRHNLGGKRYNIKREDEERKFFHDVAKTMKDVMSRENIQRAIVAGPGFYKEDFYKFLKENYPDLASKIVLDDTSMGGRVGIYEVIKRGTVDKVYSESRIANEIKLVEKVIERIAKDEPVAYGMKEVEEAVNYGAVEILLVLDELLKGDNREKVEELMELARSLRSKVVVVSSEHEGGEKLKALGGIAGILRFKIK | soluble |
| MEIQDYTDSEFKHALARNLRSLTRGKKSSKQPIAILLGGQSGAGKTTIHRIKQKEFQGNIVIIDGDSFRSQHPHYLELQQEYGKDSVEYTKDFAGKMVESLVTKLSSLGYNLLIEGTLRTVDVPKKTAQLLKNKGYEVQLALIATKPELSYLSTLIRYEELYIINPNQARATPKEHHDFIVNHLVDNTRKLEELAIFERIQIYQRDRSCVYDSKENTTSAADVLQELFFGEWSQVEKEMLQVGEKRLNELLEK | soluble |
| MEIRPTRIELIRTRRRIKLARKGLDLLKMKRSALIYEFLQISRTIRGMRENLRREVEDALNTIRTAEILEGQVALERIANMSSDSTINVDSRNVMGVVIPTLNLTYNLSILSDVYRTISVPVAINDAIDRFQRLFLNLIQILEKENALRNLLIEIDKTKRRSNAIENILIPRLEYQAKMIKMMLDERERDTFTTLKTIKKKIEAGKDEE | not soluble |
| MEIRVANKYALGKKLGSGSFGDIYVAKDIVTMEEFAVKLESTRSKHPQLLYESKLYKILGGGIGVPKVYWYGIEGDFTIMVLDLLGPSLEDLFTLCNRKFSLKTVLMTADQMLNRIEYVHSKNFIHRDIKPDNFLIGRGKKVTLIHIIDFGLAKKYRDSRSHTHIPYKEGKNLTGTARYASINTHLGIEQSRRDDIEALGYVLMYFLRGSLPWQGLKAISKKDKYDKIMEKKISTSVEVLCRNASFEFVTYLNYCRSLRFEDRPDYTYLRRLLKDLFIREGFTYDFLFDWTCVYASEKDKKKMLENKNRFDQTADQEGRVKQN | not soluble |
| MEIVLTREKMEITATPIRTRYIDRNEDFVSESIHSLKKEIENGFEIKNGDFLVVSEKFIATSEDNFVDESLADPKFWAYFTYYLSKYGWGYVLGPLLGTRGDRVKNLRKMPKTETLKHKQIVIENVGLIYALKPASEGGIDLTNVPGTYASLLPENPEYSAKKLHKKIKEDLDLDLTVMVIDTDATYRFFNWYVTALPIAVEGITSKIGVFGYILGKFGKILNQGGLCGATPLAITGNENYKKYPLKTLLYIANLSDTSQVPYTKSIHDLMKKYNTFEITVDVLKEMEHSPLVIVKCE | not soluble |
| MEKAIHNLGKDARLHIIHILLQNRSKKELADELGITPAAITKYLKGITHPSDEIIEKCIEIASEDEEYHEIIKVIVSDITEALMELLREIGIEKMIDNEDIQKLKKLLDKAFDKMLSTSPSFV | not soluble |
| MEKLDGVANTLYVPLYGRIYVSKKFPEYFYDEMALKIEEKFTSGISKGSFEYTNMAYGARYYNMDKMIIKFIEEHKISNIILLGIGLETAYDRITQKCGLGEVNYYGIDLPEVIEIRKKYFGERKQETLIAGDMFEMEWKEQIDTSIPTLLIVSGVFQYFFEDKIIEFIKNLKKEFPYGELVFDTARKKTGLRFANWYIRRTGNLEALMHFYIEDSVDFSKKTDTILVEELTFFKDARELLRKKLNFITKLFMKIADSKRQALIIHLKWLEHHHHHH | not soluble |
| MEKLINRVGPNGESRAQAVTSDQEKRLLHQLREITRVMKEGKFIDTSPEKEAEEAPYMEDWEGYPEETYPIYDLSDGIKRRQETILVDYPDLKEPSAEEIAEQMGEIEEEGSERLSWDHLPTDPGAQKDNSVAPCDPKPESCSCCVHEEEDPAVLAENAGFSADGYSEQEEATKENLPQDFTNEGLGVSTDNAHVGGMLRKRNPQGFE | not soluble |
| MEKMYNVGKIVNTHGLIGEIRVIATTDFPEERFQVGNTVYLFEKNSKKPEKLIIRSHRKHKNFDLLMFEGFTGIHQVERMKEGVLKIKETQLTNLEENEFYFHEIIGCTVVTTDGEELGEITEILTPGANDVWVVKGADKKEKLIPYIADVVKEINIDDQKITIEVMEGLLD | soluble |
| MEKNGLFSQRIRLRHLHTFVAVAQQGTLGRAAETLNLSQPALSKTLNELEQLTGTRLFERGRLGAQLTVPGEQFLTHAVKVLDALNTAGQALNRKEDASADVVRVGALPTAALGILPAAIGRFHQQQKSTSLQVATMNNTMLLAGLKSGEIDLGIGRMSDPELMGGLNYELLFLESLKLVVRPGHPLLQETITLSRVMEWPVVVSPKGTVPRQNAEALLQSQGCKMPAGCIETLSASLSRQLTVDYDYVWFVPSGAVKEDLRQATLVSLPVPTQSAGEPIGILTRVDIPLSTGAQMLIAAIRKSMPL | not soluble |
| MEKQYRVLLYYKYVPIEDPEAFREQHLAFCKELGLLGRILVSSEGINGTVSGTVEQTEKYMETMKADPRFADMVFKIDEAEGHAFKKIFVRHKKELVTLRLEDDVDPNETTGQHLKPAEFYEKMQDPNTIVIDARNDYEYDLGHFRGAVRPDIEAFRELPEWIEEHKDMLEGKKILTYCTGGVRCEKFSGWLVKQGFEDVAQLDGGIVTYGKDPEVQGKLWDGQCYVFDERISVPVNRVEHVIVGKDYFTGEPCERYVNCANPSCNKKMICTPENEYKYMRSCSHECRTNPRNLYVKEHNMTEEEVNARLAAIETEDHAAAE | not soluble |
| MEKRNIQVTRHFVCADQLQQISETVIACLGQEDLITISGGLGPISDDKTRDAVAKAVRQPLFHHEDVWQTIKGQLGWLGSTPDSNNARQALFPETAKVLDNPTGTAPGFYLSCGESILVILTGSLTQAFALLENYLEHGEKKYSSVSRARYAWILIGIDESAIAHWVDCQLANELFERHFYGKALMFSYNWLASHQRFWLSI | not soluble |
